Earlier results on two substances are cited in publication PMC7590224.

In the data set the test system is hLarp7 xRRM domain (human). Conditions: No direct binding assays in this paper (only in vivo E. coli suppressor tRNA reporter assays, left out); conditions of the cited Kd values not given. (In general: Reporter assays use an easily measured gene product as a stand-in for the process of interest.)

For the substance 7SK SL4 U311A, the Kd (as a rule, the constant that tells how readily two partners part at equilibrium) is 0.051 µM.
As for 7SK RNA stem-loop 4 (SL4), the Kd was 0.129 µM.
